Measured values as given in article PMC9844198.

Molecular target: LD-CLIMP-63-FLAG (soluble CLIMP-63 luminal domain, C-terminal His6-FLAG tag) (human)
Assay: native MS; intact protein mass LC-MS under native-like conditions; MAbPac SEC-1 column, 50 mM ammonium acetate pH 7.5, QExactive HF Orbitrap, high-mass-range mode

With “LD-CLIMP-63-FLAG (soluble CLIMP-63 luminal domain, C-terminal His6-FLAG tag) (domain or fragment)” the stoichiometry N was 3.
